Data on 5 molecules can be found in US20230340555A1, “PRODUCTION OF GLYCOSYLATED CANNABINOIDS” (WILLOW BIOSCIENCES, INC., priority 2020, published 2023).

For series [1] the following is noted: cited from earlier work.
For series [2], the system named is CN3 yeast strain host cells. Briefly: Detection of glycosylated cannabinoids and cannabinoid precursors in yeast cells expressing UDP-glycosyl transferase (HPLC-MS). Format: cell-based. The conditions noted are these: for production of glycosylated cannabinoids or cannabinoid precursor compounds: pellet or supernatant of recombinant yeast host cells transformed with the UGT; for CBD-glc / CBD-(glc)2: 0.5 g/L CBD. Details: key to CBDA-glc / OLA-glc / CBGA-glc / CBGA-(glc)2 / CBD-glc / CBD-(glc)2 / OLA-(glc)2 / CBGA-glucuronic acid: (+) represents the lowest detected quantities; (++), (+++), and (++++) signify relative increasing intermediate detected levels; (++), (+++), and (++++) signify relative increasing intermediate detected levels; (++), (+++), and (++++) signify relative increasing intermediate detected levels; (+++++) represents the highest detected quantities; No detectable levels of a glycosylated cannabinoid compound or glycosylated cannabinoid precursor compound are indicated by “n.d.”. A digest of the protocol: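 CN3 yeast host cells carrying a heterologous UDP-glycosyl transferase gene were grown overnight in YPD, then diluted into YPG to OD600 = 0.2 and shaken at 600 RPM and 28° C. Cell pellets and supernatants were extracted for 1 hour in 80 % Acetonitrile/20 % Methanol, centrifuged at 12,000 RPM, filtered (0.22 µm), and checked for glycosylated cannabinoids and precursors by HPLC and negative-mode ESI QToF HPLC-MS.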

In series [3] the test system is bacterial strain BL21 (DE3). Briefly: CBDA depletion in BL21 (DE3) strains expressing UGTs (UHPLC-MS). Format: cell-based. The conditions noted are these: 0.1 mM CBDA, induced with 100 µM IPTG for 4h at 37° C. vs controls without induction. From the text:
The following cDNAs encoding UGTs from Arabidopsis thaliana, Cannabis sativa and Helianthus annuus UGTs were cloned into pDONOR-zeo (as described in Example 1) and then recombined into the prokaryotic expression vector pDEST14: AtUGT73C6 (SEQ ID NO: 3), AtUGT88A1 (SEQ ID NO: 5), AtUGT71 D1 (SEQ ID NO: 7), AtUGT73B4 (SEQ ID NO: 9), AtUGT76C4 (SEQ ID NO: 11), AtUGT76E12 (SEQ ID NO: 13), and At5g49690 (SEQ ID NO: 17), CsUGT73C6 (SEQ ID NO: 15), HaUGT76G1L (SEQ ID NO: 1), and SrUGT76G1 (SEQ ID NO: 19). Host cells from the bacterial strain BL21 (DE3) were transformed individually pDEST14 vector.
A BL21 (DE3) single colony was inoculated in liquid media and incubated at 37° C. overnight. The bacterial cultures were diluted to a final 0.6 OD and CBDA was added to a final concentration of 0.1 mM. The cultures were split, and half was induced with 100 µM IPTG for 4h at 37° C. to express the UGTs and the other half was kept as controls without induction of UGT expression.
Subsequently, samples were treated with a 1:1 volume of acetonitrile for 15 minutes at 250 RPM. After 30 minutes centrifugation at 4,000 RPM, samples were diluted 1000-fold in the same solvent for further analysis.
CBDA depletion was assayed employing UHPLC-MS analysis. The instrument used was a Thermo Vanquish UHPLC connected to a Thermo TSQ Altis mass spectrometer. The UHPLC consists of a vacuum degasser, a ternary pump, a thermostated autosampler held at 5° C., and a thermostated column compartment. An Accucore C18 (150 × 2.2 mm, 2.6 µm, Thermo, USA) was used. The mobile phase is water with 0.1 % formic acid (A) and acetonitrile with 0.1 % formic acid (B) on a linear gradient (see Table 5). The flow rate was set at 0.800 mL/min. The column temperature was set at 30° C. The sample injection volume was 1 µL.
MS analyses were carried out in order to ensure the identity of the peaks and were performed on a Thermo TSQ Altis triple quadrupole mass spectrometer using electrospray ionization in negative mode. Compounds were analyzed using selected reaction monitoring using two ion pairs for quantitation and confirmation respectively.

[4] abbreviates: 20 h growth, detected in PELLET, 0.05 mM hexanoic acid.
Where [5] appears, read: 20 h growth, detected in PELLET.
Setting [6] is: 20 h growth, detected in SUPERNATANT, 0.2 mM hexanoic acid.
[7] abbreviates: 20 h growth, detected in SUPERNATANT

For `CCCCCc1cc(O)c2c(c1)OC(C)(C)C1CCC(C)=CC21` (centres unmarked) [Δ^9-THC, Δ^9-tetrahydrocannabinol], the solubility in water entry in series [1] was “less than 0.01 mg/ml”.

B1: At5g49690: UDP-glycosyl transferase from Arabidopsis thaliana, amino acid sequence SEQ ID NO: 18 (protein, listed as Arabidopsis thaliana)
chain: MVDKREEVMHVAMFPWLAMGHLLPFLRLSKLLAQKGHKISFISTPRNIERLPKLQSNLASSITFVSFPLPPISGLPPSSESSMDVPYNKQQSLKAAFDLLQPPLKEFLRRSSPDWIIYDYASHWLPSIAAELGISKAFFSLFNAATLCFMGPSSSLIEEIRSTPEDFTVVPPWVPFKSNIVFRYHEVTRYVEKTEEDVTGVSDSVRFGYSIDESDAVFVRSCPEFEPEWFGLLKDLYRKPVFPIGFLPPVIEDDDAVDTTWVRIKKWLDKQRLNSVVYVSLGTEASLRHEEVTELALGLEKSETPFFWVLRNEPKIPDGFKTRVKGRGMVHVGWVPQVKILSHESVGGFLTHCGWNSVVEGLGFGKVPIFFPVLNEQGLNTRLLHGKGLGVEVSRDERDGSFDSDSVADSIRLVMIDDAGEEIRAKAKVMKDLFGNMDENIRYVDELVRFMRSKGSSSSS
B1: the CBDA-glc result in series [2] (setting [4]) is “+”. In addition, the “production of glycosylated cannabinoids or cannabinoid precursor compounds” value (from here on “production”) in series [2] is listed as “detected”. In addition, in series [3], the “decrease in CBDA content” value is on record as 9%.

B2: AtUGT71 D1: UDP-glycosyl transferase from Arabidopsis thaliana, amino acid sequence SEQ ID NO: 8 (protein, listed as Arabidopsis thaliana)
chain: MRNVELIFIPTPTVGHLVPFLEFARRLIEQDDRIRITILLMKLQGQSHLDTYVKSIASSQPFVRFIDVPELEEKPTLGSTQSVEAYVYDVIERNIPLVRNIVMDILTSLALDGVKVKGLVVDFFCLPMIDVAKDISLPFYVFLTTNSGFLAMMQYLADRHSRDTSVFVRNSEEMLSIPGFVNPVPANVLPSALFVEDGYDAYVKLAILFTKANGILVNSSFDIEPYSVNHFLQEQNYPSVYAVGPIFDLKAQPHPEQDLTRRDELMKWLDDQPEASVVFLCFGSMARLRGSLVKEIAHGLELCQYRFLWSLRKEEVTKDDLPEGFLDRVDGRGMICGWSPQVEILAHKAVGGFVSHCGWNSIVESLWFGVPIVTWPMYAEQQLNAFLMVKELKLAVELKLDYRVHSDEIVNANEIETAIRYVMDTDNNVVRKRVMDISQMIQRATKNGGSSFAAIEKFIYDVIGIKP
In the case of B2, in series [2] (setting [4]), the CBDA-glc entry is on record as “++”, the CBGA-glc result is on record as “+” and the OLA-glc entry is given as “++”. Further, in series [2] (setting [5]), the CBD-glc entry is “+++”. The OLA-glc entry in series [2] (setting [6]) is “++”. Also, the CBD-glc entry in series [2] (setting [7]) is recorded as “+++”. Moreover, the “production” value in series [2] is listed as “detected”. In addition, in series [3], the “decrease in CBDA content” value is 9%.

B3: AtUGT73C6: UDP-glycosyl transferase from Arabidopsis thaliana, amino acid sequence SEQ ID NO: 4 (protein, listed as Arabidopsis thaliana)
chain: MAFEKNNEPFPLHFVLFPFMAQGHMIPMVDIARLLAQRGVLITIVTTPHNAARFKNVLNRAIESGLPINLVQVKFPYQEAGLQEGQENMDLLTTMEQITSFFKAVNLLKEPVQNLIEEMSPRPSCLISDMCLSYTSEIAKKFKIPKILFHGMGCFCLLCVNVLRKNREILDNLKSDKEYFIVPYFPDRVEFTRPQVPVETYVPAGWKEILEDMVEADKTSYGVIVNSFQELEPAYAKDFKEARSGKAWTIGPVSLCNKVGVDKAERGNKSDIDQDECLEWLDSKEPGSVLYVCLGSICNLPLSQLLELGLGLEESQRPFIWVIRGWEKYKELVEWFSESGFEDRIQDRGLLIKGWSPQMLILSHPSVGGFLTHCGWNSTLEGITAGLPMLTWPLFADQFCNEKLVVQILKVGVSAEVKEVMKWGEEEKIGVLVDKEGVKKAVEELMGESDDAKERRRRAKELGESAHKAVEEGGSSHSNITFLLQDIMQLAQSNN
Regarding B3, in series [2] (setting [4]), the CBDA-glc result is on record as “+++”, the “CBGA-(glc)2” value was “++”, the CBGA-glc result is “++++” and the CBGA-glucuronic acid entry is recorded as “++”. Besides, in series [2] (setting [4]), the “OLA-(glc)2” value is “++” and the OLA-glc entry is “+++”. Further, in series [2] (setting [5]), the “CBD-(glc)2” value was “++” and the CBD-glc result is “+++”. Further, in series [2] (setting [6]), the “CBGA-(glc)2” value is “+”, the CBGA-glc entry is listed as “+” and the OLA-glc entry is given as “+++”. In series [2] (setting [7]), the “CBD-(glc)2” value was “++” and the CBD-glc entry is “+++”. In addition, in series [2], the “production” value is given as “detected”. In addition, in series [3], the “decrease in CBDA content” value was 12%.

B4: SrUGT76G1: UDP-glycosyl transferase from Stevia rebaudiana, amino acid sequence SEQ ID NO: 20 (protein, listed as Stevia rebaudiana)
chain: MENKTETTVRRRRRIILFPVPFQGHINPILQLANVLYSKGFSITIFHTNFNKPKTSNYPHFTFRFILDNDPQDERISNLPTHGPLAGMRIPIINEHGADELRRELELLMLASEEDEEVSCLITDALWYFAQSVADSLNLRRLVLMTSSLFNFHAHVSLPQFDELGYLDPDDKTRLEEQASGFPMLKVKDIKSAYSNWQILKEILGKMIKQTRASSGVIWNSFKELEESELETVIREIPAPSFLIPLPKHLTASSSSLLDHDRTVFQWLDQQPPSSVLYVSFGSTSEVDEKDFLEIARGLVDSKQSFLWVVRPGFVKGSTWVEPLPDGFLGERGRIVKWVPQQEVLAHGAIGAFWTHSGWNSTLESVCEGVPMIFSDFGLDQPLNARYMSDVLKVGVYLENGWERGEIANAIRRVMVDEEGEYIRQNARVLKQKADVSLMKGGSSYESLESLVSYISSL
In the case of B4, in series [2], the “production” value was “No production”. The “decrease in CBDA content” value in series [3] turned out to be 21%.
